T1: Plasmodium falciparum histidine-rich protein II (HRP-II) (Plasmodium falciparum, UniProt P05227 22-332)
T1 construct: Coating antigen of all ELISAs; also called HRP-II protein; MA-HRPII Ag protein
T1 sequence (looked up): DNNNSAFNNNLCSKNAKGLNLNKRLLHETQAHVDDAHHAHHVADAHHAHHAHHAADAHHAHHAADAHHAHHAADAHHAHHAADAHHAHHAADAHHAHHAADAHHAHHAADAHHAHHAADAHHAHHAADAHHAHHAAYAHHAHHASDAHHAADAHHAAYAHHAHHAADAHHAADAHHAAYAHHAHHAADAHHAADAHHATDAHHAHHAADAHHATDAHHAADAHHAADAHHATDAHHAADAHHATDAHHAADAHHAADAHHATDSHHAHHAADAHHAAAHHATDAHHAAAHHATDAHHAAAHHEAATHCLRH

B1: Mutation 1-3 (antibody, mouse IgG2b, kappa, V domains shown)
VH: EVQLQQSGPEVVKPGASVKISCKASGYTITDYYMNWVKQSHGKGLEWIGDLNPINGGTAYQQKFRDKATLTVDKSSNTAYMELRSLTSEDSALYYCTRGAEDYWGQGTTLTVSS
VL: DVVLTQTPLSLSVTIGQPASISCKSSQSIIYSNGKIYLNWFQQRPGQSPKRLMYQLSKLEPGIPDRFSGSGSETDFTLKISRVEAEDLGVYYCLQGTYSPQTFGGGTKLEIKR
notes: Mutation 1 as framework
B2: Mutation 1-1 (antibody, mouse IgG2b, kappa, V domains shown)
VH: EVQLQQSGPEVVKPGASVKISCKASGYTITDYYMNWVKQSHGKGLEWIGDINPIQGGTAYNQKFRDKATLTVDKSSNTAYMELRSLTSEDSALYYCTRGAEDYWGQGTTLTVSS
VL: DVVLTQTPLSLSVTIGQPASISCKSSQSIIYSQGKIYLNWFQQRPGQSPKRLMYQISKLEPGIPDRFSGSGSETDFTLKISRVEAEDLGVYYCLQGTYYPQTFGGGTKLEIKR
notes: Mutation 1 as framework
B3: Mutation 1-7 (antibody, mouse IgG2b, kappa, V domains shown)
VH: EVQLQQSGPEVVKPGASVKISCKASGYTITDYYMNWVKQSHGKGLEWIGDINPINGGTAYQQKFRDKATLTVDKSSNTAYMELRSLTSEDSALYYCTRGAEDYWGQGTTLTVSS
VL: DVVLTQTPLSLSVTIGQPASISCKSSQSLIYSNGKIYLNWFQQRPGQSPKRLMYQISKLEPGIPDRFSGSGSETDFTLKISRVEAEDLGVYYCLQATYYPQTFGGGTKLEIKR
notes: Mutation 1 as framework
B4: Mutation 1-2 (antibody, mouse IgG2b, kappa, V domains shown)
VH: EVQLQQSGPEVVKPGASVKISCKASGSTLTDYYMNWVKQSHGKGLEWIGDVNPIQGGTAYQQKFRDKATLTVDKSSNTAYMELRSLTSEDSALYYCTKGAEDYWGQGTTLTVSS
VL: DVVLTQTPLSLSVTIGQPASISCKSSQSLLYSNGKIYLNWFQQRPGQSPKRLMYQLSKLDPGIPDRFSGSGSETDFTLKISRVEAEDLGVYYCLQATYTPQTFGGGTKLEIKR
notes: Mutation 1 as framework
B5: Mutation 1-6 (antibody, mouse IgG2b, kappa, V domains shown)
VH: EVQLQQSGPEVVKPGASVKISCKASGYTITDYYMNWVKQSHGKGLEWIGDLNPIQGGTAYNQKFRDKATLTVDKSSNTAYMELRSLTSEDSALYYCTKGAEDYWGQGTTLTVSS
VL: DVVLTQTPLSLSVTIGQPASISCKSSQSLIYSNGKIYLNWFQQRPGQSPKRLMYQISKLDPGIPDRFSGSGSETDFTLKISRVEAEDLGVYYCLQATYSPQTFGGGTKLEIKR
notes: Mutation 1 as framework
B6: Mutation 1-4 (antibody, mouse IgG2b, kappa, V domains shown)
VH: EVQLQQSGPEVVKPGASVKISCKASGYTLTDYYMNWVKQSHGKGLEWIGDINPINGGTAYQQKFRDKATLTVDKSSNTAYMELRSLTSEDSALYYCTKGAEDYWGQGTTLTVSS
VL: DVVLTQTPLSLSVTIGQPASISCKSSQSILYSNGKIYLNWFQQRPGQSPKRLMYQVSKLDPGIPDRFSGSGSETDFTLKISRVEAEDLGVYYCLQATYYPQTFGGGTKLEIKR
notes: Mutation 1 as framework
B7: Mutation 1-5 (antibody, mouse IgG2b, kappa, V domains shown)
VH: EVQLQQSGPEVVKPGASVKISCKASGSTLTDYYMNWVKQSHGKGLEWIGDVNPINGGTAYNQKFRDKATLTVDKSSNTAYMELRSLTSEDSALYYCTRGAEDYWGQGTTLTVSS
VL: DVVLTQTPLSLSVTIGQPASISCKSSQSILYSQGKIYLNWFQQRPGQSPKRLMYQVSKLEPGIPDRFSGSGSETDFTLKISRVEAEDLGVYYCLQGTYTPQTFGGGTKLEIKR
notes: Mutation 1 as framework
B8: Mutation 1-30 (antibody, mouse IgG2b, kappa, V domains shown)
VH: EVQLQQSGPEVVKPGASVKISCKASGSTLTDYYMNWVKQSHGKGLEWIGDLNPIQGGTAYNQKFRDKATLTVDKSSNTAYMELRSLTSEDSALYYCTKGAEDYWGQGTTLTVSS
VL: DVVLTQTPLSLSVTIGQPASISCKSSQSIIYSNGKIYLNWFQQRPGQSPKRLMYQISKLDPGIPDRFSGSGSETDFTLKISRVEAEDLGVYYCLQATYSPQTFGGGTKLEIKR
notes: Mutation 1 as framework
B9: Mutation 1-52 (antibody, mouse IgG2b, kappa, V domains shown)
VH: EVQLQQSGPEVVKPGASVKISCKASGTTLTDYYMNWVKQSHGKGLEWIGDINPIQGGTAYQQKFRDKATLTVDKSSNTAYMELRSLTSEDSALYYCTRGAEDYWGQGTTLTVSS
VL: DVVLTQTPLSLSVTIGQPASISCKSSQSIIYSNGKIYLNWFQQRPGQSPKRLMYQVSKLDPGIPDRFSGSGSETDFTLKISRVEAEDLGVYYCLQATYYPQTFGGGTKLEIKR
notes: Mutation 1 as framework
B10: Mutation 1-40 (antibody, mouse IgG2b, kappa, V domains shown)
VH: EVQLQQSGPEVVKPGASVKISCKASGTTLTDYYMNWVKQSHGKGLEWIGDINPINGGTAYQQKFRDKATLTVDKSSNTAYMELRSLTSEDSALYYCTRGAEDYWGQGTTLTVSS
VL: DVVLTQTPLSLSVTIGQPASISCKSSQSILYSNGKIYLNWFQQRPGQSPKRLMYQLSKLDPGIPDRFSGSGSETDFTLKISRVEAEDLGVYYCLQGTYTPQTFGGGTKLEIKR
notes: Mutation 1 as framework
B11: Mutation 1-43 (antibody, mouse IgG2b, kappa, V domains shown)
VH: EVQLQQSGPEVVKPGASVKISCKASGTTLTDYYMNWVKQSHGKGLEWIGDINPINGGTAYQQKFRDKATLTVDKSSNTAYMELRSLTSEDSALYYCTKGAEDYWGQGTTLTVSS
VL: DVVLTQTPLSLSVTIGQPASISCKSSQSILYSNGKIYLNWFQQRPGQSPKRLMYQISKLEPGIPDRFSGSGSETDFTLKISRVEAEDLGVYYCLQGTYSPQTFGGGTKLEIKR
notes: Mutation 1 as framework
B12: Mutation 1-38 (antibody, mouse IgG2b, kappa, V domains shown)
VH: EVQLQQSGPEVVKPGASVKISCKASGTTLTDYYMNWVKQSHGKGLEWIGDVNPIQGGTAYQQKFRDKATLTVDKSSNTAYMELRSLTSEDSALYYCTRGAEDYWGQGTTLTVSS
VL: DVVLTQTPLSLSVTIGQPASISCKSSQSLLYSNGKIYLNWFQQRPGQSPKRLMYQLSKLDPGIPDRFSGSGSETDFTLKISRVEAEDLGVYYCLQGTYSPQTFGGGTKLEIKR
notes: Mutation 1 as framework
B13: Mutation 1-34 (antibody, mouse IgG2b, kappa, V domains shown)
VH: EVQLQQSGPEVVKPGASVKISCKASGTTLTDYYMNWVKQSHGKGLEWIGDINPINGGTAYQQKFRDKATLTVDKSSNTAYMELRSLTSEDSALYYCTRGAEDYWGQGTTLTVSS
VL: DVVLTQTPLSLSVTIGQPASISCKSSQSLLYSNGKIYLNWFQQRPGQSPKRLMYQVSKLDPGIPDRFSGSGSETDFTLKISRVEAEDLGVYYCLQGTYTPQTFGGGTKLEIKR
notes: Mutation 1 as framework
B14: Mutation 1-51 (antibody, mouse IgG2b, kappa, V domains shown)
VH: EVQLQQSGPEVVKPGASVKISCKASGSTLTDYYMNWVKQSHGKGLEWIGDLNPINGGTAYQQKFRDKATLTVDKSSNTAYMELRSLTSEDSALYYCTKGAEDYWGQGTTLTVSS
VL: DVVLTQTPLSLSVTIGQPASISCKSSQSLLYSNGKIYLNWFQQRPGQSPKRLMYQLSKLEPGIPDRFSGSGSETDFTLKISRVEAEDLGVYYCLQGTYYPQTFGGGTKLEIKR
notes: Mutation 1 as framework
B15: Mutation 1-12 (antibody, mouse IgG2b, kappa, V domains shown)
VH: EVQLQQSGPEVVKPGASVKISCKASGYTITDYYMNWVKQSHGKGLEWIGDLNPINGGTAYNQKFRDKATLTVDKSSNTAYMELRSLTSEDSALYYCTRGAEDYWGQGTTLTVSS
VL: DVVLTQTPLSLSVTIGQPASISCKSSQSILYSNGKIYLNWFQQRPGQSPKRLMYQISKLDPGIPDRFSGSGSETDFTLKISRVEAEDLGVYYCLQGTYSPQTFGGGTKLEIKR
notes: Mutation 1 as framework
B16: Mutation 1-9 (antibody, mouse IgG2b, kappa, V domains shown)
VH: EVQLQQSGPEVVKPGASVKISCKASGYTLTDYYMNWVKQSHGKGLEWIGDLNPIQGGTAYNQKFRDKATLTVDKSSNTAYMELRSLTSEDSALYYCTRGAEDYWGQGTTLTVSS
VL: DVVLTQTPLSLSVTIGQPASISCKSSQSIIYSQGKIYLNWFQQRPGQSPKRLMYQLSKLEPGIPDRFSGSGSETDFTLKISRVEAEDLGVYYCLQGTYSPQTFGGGTKLEIKR
notes: Mutation 1 as framework
B17: Mutation 1-44 (antibody, mouse IgG2b, kappa, V domains shown)
VH: EVQLQQSGPEVVKPGASVKISCKASGYTITDYYMNWVKQSHGKGLEWIGDVNPINGGTAYQQKFRDKATLTVDKSSNTAYMELRSLTSEDSALYYCTRGAEDYWGQGTTLTVSS
VL: DVVLTQTPLSLSVTIGQPASISCKSSQSILYSNGKIYLNWFQQRPGQSPKRLMYQLSKLDPGIPDRFSGSGSETDFTLKISRVEAEDLGVYYCLQATYSPQTFGGGTKLEIKR
notes: Mutation 1 as framework
B18: Mutation 1-24 (antibody, mouse IgG2b, kappa, V domains shown)
VH: EVQLQQSGPEVVKPGASVKISCKASGTTLTDYYMNWVKQSHGKGLEWIGDLNPIQGGTAYQQKFRDKATLTVDKSSNTAYMELRSLTSEDSALYYCTKGAEDYWGQGTTLTVSS
VL: DVVLTQTPLSLSVTIGQPASISCKSSQSIIYSNGKIYLNWFQQRPGQSPKRLMYQISKLDPGIPDRFSGSGSETDFTLKISRVEAEDLGVYYCLQATYSPQTFGGGTKLEIKR
notes: Mutation 1 as framework
B19: Mutation 1-27 (antibody, mouse IgG2b, kappa, V domains shown)
VH: EVQLQQSGPEVVKPGASVKISCKASGTTLTDYYMNWVKQSHGKGLEWIGDLNPINGGTAYQQKFRDKATLTVDKSSNTAYMELRSLTSEDSALYYCTKGAEDYWGQGTTLTVSS
VL: DVVLTQTPLSLSVTIGQPASISCKSSQSIIYSNGKIYLNWFQQRPGQSPKRLMYQLSKLEPGIPDRFSGSGSETDFTLKISRVEAEDLGVYYCLQGTYSPQTFGGGTKLEIKR
notes: Mutation 1 as framework
B20: Mutation 1-36 (antibody, mouse IgG2b, kappa, V domains shown)
VH: EVQLQQSGPEVVKPGASVKISCKASGTTLTDYYMNWVKQSHGKGLEWIGDLNPIQGGTAYNQKFRDKATLTVDKSSNTAYMELRSLTSEDSALYYCTRGAEDYWGQGTTLTVSS
VL: DVVLTQTPLSLSVTIGQPASISCKSSQSLLYSNGKIYLNWFQQRPGQSPKRLMYQISKLDPGIPDRFSGSGSETDFTLKISRVEAEDLGVYYCLQGTYSPQTFGGGTKLEIKR
notes: Mutation 1 as framework
B21: Mutation 1-42 (antibody, mouse IgG2b, kappa, V domains shown)
VH: EVQLQQSGPEVVKPGASVKISCKASGYTITDYYMNWVKQSHGKGLEWIGDLNPINGGTAYQQKFRDKATLTVDKSSNTAYMELRSLTSEDSALYYCTRGAEDYWGQGTTLTVSS
VL: DVVLTQTPLSLSVTIGQPASISCKSSQSILYSNGKIYLNWFQQRPGQSPKRLMYQISKLDPGIPDRFSGSGSETDFTLKISRVEAEDLGVYYCLQGTYSPQTFGGGTKLEIKR
notes: Mutation 1 as framework

target: T1, Plasmodium falciparum histidine-rich …; experiment: indirect ELISA, four antigen coating concentrations;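 note: optical density read across an antibody dilution series at each antigen coating level, curves plotted on log scale, KD derived as reciprocal of the averaged constant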
Protocol: The OD values corresponding to different antibody concentrations with different coating concentrations are obtained. Under the same coating concentration, the antibody concentrations are used as an abscissa, the 00 values are used as an ordinate, and a logarithmic plot is made. […] An average value thereof is taken and a reciprocal thereof is calculated to get the affinity constant KD.

B1 and B2 are within 1.5-fold of each other in Kd: 0.362 nM for the first, 0.301 nM for the second.

Compared with B3, B4 is 3.6-fold lower in Kd: 0.329 nM for the first, 0.0903 nM for the second.

B5 and B6 are within 1.5-fold of each other in Kd: 0.415 nM for the first, 0.465 nM for the second.

Compared with B7, B8 is 1.9-fold higher in Kd: 0.125 nM for the first, 0.233 nM for the second. The first binds more tightly here.

Compared with B9, B10 is 2.2-fold lower in Kd: 0.182 nM for the first, 0.083 nM for the second.

B11 and B12 are within 1.5-fold of each other in Kd: 0.124 nM for the first, 0.0883 nM for the second.

B13 and B14 are within 1.5-fold of each other in Kd: 0.184 nM for the first, 0.179 nM for the second.

Compared with B15, B16 is 2-fold lower in Kd: 0.126 nM for the first, 0.0645 nM for the second. The second binds more tightly here.

B17 and B18 are within 1.5-fold of each other in Kd: 0.105 nM for the first, 0.127 nM for the second.

Compared with B19, B20 is 2.9-fold higher in Kd: 0.165 nM for the first, 0.473 nM for the second.

Work on B21 yielded a Kd of 0.0643 nM.

Reference: patent US20220002395A1 (FAPON BIOTECH, published 2022)
